Source: US20140303084A1 (Biogen, published 2014)
Ends that are not written are not given here.

Assays:
human Factor VIIa = target: T1, human Factor VIIa (human, UniProt P08709 61-466); assay: BLI (ForteBio Octet 384), peptide on streptavidin probes, soluble hFVIIa
T1 construct: Bought protein; also called hFVIIa; FVIIa
T1 sequence (looked up): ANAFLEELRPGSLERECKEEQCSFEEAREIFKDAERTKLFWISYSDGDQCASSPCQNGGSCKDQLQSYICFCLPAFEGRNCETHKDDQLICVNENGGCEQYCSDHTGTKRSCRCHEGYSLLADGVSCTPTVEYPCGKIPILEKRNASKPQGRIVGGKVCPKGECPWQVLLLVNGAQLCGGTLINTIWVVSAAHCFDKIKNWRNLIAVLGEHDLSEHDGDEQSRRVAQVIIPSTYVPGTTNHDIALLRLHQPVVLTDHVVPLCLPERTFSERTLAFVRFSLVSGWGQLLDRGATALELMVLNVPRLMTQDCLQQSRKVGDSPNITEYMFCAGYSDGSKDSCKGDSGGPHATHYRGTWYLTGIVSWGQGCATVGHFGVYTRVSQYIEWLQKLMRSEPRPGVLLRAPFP
Description: Briefly, a layer of molecules attached to the tip of an optical fiber creates an interference pattern upon incident white light. The combination of the optical fiber and biocompatible surface creates the physical conditions needed for BLI, allowing the detection of changes in mass accumulation on the tip of the probe. This is measured by alterations in the spectral shift (nm). These changes are recorded as a binding profile, a continuous, real-time monitoring of the association and dissociation of interacting molecules.
Control SA probes were loaded with 4M guanidinium chloride in the absence of biotinylated peptide for reference subtraction. After loading, probes were incubated in HBS-P for 300 sec to establish a new baseline. […] This is described as the dissociation phase. The equilibrium KD was derived from the non-linear regression analysis of the subtracted data (Reaction probe minus Reference probe) using a 1:1 binding model with ForteBio software (Version 7.0).

human Factor IXa = human Factor IXa (human, UniProt P00740 47-191; P00740 227-461); assay: cell-based or functional assay

- Kd (human Factor VIIa): 250 nM
- EC50 [µM], FXa generation assay with hFIXa (human Factor IXa): < 0.5 µM
B1: compound 25 (peptide)
peptide: RRAPGKLQCLASYCWLFWTGIA-NH2
modifications: cysteine pairing not given here
